This is an account of results in article PMC6579465, “The priming factor CAPS1 regulates dense-core vesicle acidification by interacting with rabconnectin3β/WDR7 in neuroendocrine cells” (The Journal of Biological Chemistry, 2019).

The test concerns the target T1, CAPS1 (calcium-dependent activator protein for secretion, CADPS) (rat (endogenous in rat brain), UniProt Q62717 1-1289).
T1 construct: CAPS1 (CADPS), endogenous protein of rat brain; Precipitated with a rabbit polyclonal CAPS peptide antibody and eluted with the 21-mer peptide immunogen; source: endogenous, rat brain crude synaptosomal membrane fraction, solubilized in 1% Triton X-100
The test is described as follows: affinity purification with mass spectrometry; CAPS1 immunoprecipitate of detergent extract resolved by SDS-PAGE; Coomassie-stained bands seen in the CAPS1 but not the control immunoprecipitate excised, in-gel digests, LC-MS/MS. The conditions noted are these: partners not purified.

T1 sequence (Q62717 whole entry): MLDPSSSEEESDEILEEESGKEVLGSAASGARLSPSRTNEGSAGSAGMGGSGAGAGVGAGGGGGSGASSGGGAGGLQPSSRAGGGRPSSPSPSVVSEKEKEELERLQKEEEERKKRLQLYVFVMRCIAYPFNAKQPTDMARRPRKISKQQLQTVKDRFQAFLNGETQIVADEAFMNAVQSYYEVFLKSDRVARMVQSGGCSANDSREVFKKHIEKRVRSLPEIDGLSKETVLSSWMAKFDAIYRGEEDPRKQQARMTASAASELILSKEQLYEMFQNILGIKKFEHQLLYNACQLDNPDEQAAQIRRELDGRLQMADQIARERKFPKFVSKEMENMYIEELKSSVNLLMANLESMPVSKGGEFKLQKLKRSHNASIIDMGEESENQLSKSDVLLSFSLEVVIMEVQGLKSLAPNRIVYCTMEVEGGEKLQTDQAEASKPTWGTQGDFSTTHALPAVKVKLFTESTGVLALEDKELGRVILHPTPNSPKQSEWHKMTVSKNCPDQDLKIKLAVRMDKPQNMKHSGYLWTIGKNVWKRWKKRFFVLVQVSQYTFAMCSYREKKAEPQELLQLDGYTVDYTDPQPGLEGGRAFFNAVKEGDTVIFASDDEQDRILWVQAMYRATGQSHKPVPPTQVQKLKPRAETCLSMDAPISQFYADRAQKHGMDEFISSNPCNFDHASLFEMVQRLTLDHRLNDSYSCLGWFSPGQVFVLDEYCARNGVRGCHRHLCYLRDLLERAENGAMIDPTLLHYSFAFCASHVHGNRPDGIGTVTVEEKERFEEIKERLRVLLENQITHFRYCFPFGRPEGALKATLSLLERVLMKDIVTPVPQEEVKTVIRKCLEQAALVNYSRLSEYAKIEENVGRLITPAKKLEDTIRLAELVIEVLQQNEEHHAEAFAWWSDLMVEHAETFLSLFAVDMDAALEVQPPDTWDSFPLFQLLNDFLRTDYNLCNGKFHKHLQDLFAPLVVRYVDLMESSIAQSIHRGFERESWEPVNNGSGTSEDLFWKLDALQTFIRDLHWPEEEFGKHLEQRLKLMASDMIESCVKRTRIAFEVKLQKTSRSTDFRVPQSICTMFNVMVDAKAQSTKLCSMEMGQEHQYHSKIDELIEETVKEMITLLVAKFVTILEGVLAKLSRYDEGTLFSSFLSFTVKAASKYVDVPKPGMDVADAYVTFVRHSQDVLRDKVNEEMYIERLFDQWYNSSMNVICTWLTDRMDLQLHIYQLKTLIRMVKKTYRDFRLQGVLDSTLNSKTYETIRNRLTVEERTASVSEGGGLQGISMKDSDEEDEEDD

B1: Rabconnectin3β (Rbcn3β) / WD repeat domain 7 (WDR7) (natural protein, rat (endogenous in rat brain), UniProt Q9ERH3 1-1488, looked up)
chain: MAGNSLVLPIVLWGRKAPTHCISSILLTDDGGTIVTGCHDGQICLWDLSEELEVNPRALLFGHTAAITCLSKACASGDKQYTVSASANGEMCLWDVNDGRCIEFTKLACTHTGIQFYQFSVGNQREGRLLCHGHYPEILVVDATSLEVLYSLVSKISPDWISSMSIIRSHRTQEDTVVALSVTGILKVWIVTSEISGLQDTEPIFEEESKPIYCQNCQSLSFCAFTQRSLLVVCSKYWRVFDAGDYSLLCSGPSEDGQTWTGGDFVSADKVIIWTENGQSYIYKLPASCLPASDSFRSDVGKAVENLIPPVQHSLLDQKDRELVICPPVTRFFYGCKEYLHKLLIQGDSSGRLSIWNIADIADKQEANEGLKTTTCISLQDAFDKLKPCPAGIIDQLSVIPNSNEPLKVTASVYIPAHGRLVCGREDGSIIIVPATQTAIVQLLQGEHMLRRGWPPHRTLRGHRNKVTCLLYPHQVSARYDQRYLISGGVDFSVIIWDIFSGEMKHIFCVHGGEITQLLVPPENCSARVQHCVCSVASDHSVGLLSLREKKCIMLASRHLFPIQVIKWRPSDDYLVVGCTDGSVCVWQMDTGALDRCAMGITAVEILNACDEAVPAAVDSLSHPAVNLKQAMTRRSLAALKNMAHHKLQTLATNLLASEASDKGNLPKYSHNSLMVQAIKTNLTDPDIHVLFFDVEALIIQLLTEEASRPNTALISPENLQKASGSSDKGGSFLTGKRAAVLFQQVKETIKENIKEHLLDEEEDEEEVMRQRREESDPEYRASKSKPLTLLEYNLTMDTAKLFMSCLHAWGLNEVLDEVCLDRLGMLKPHCTVSFGLLSRGGHMSLMLPGYNQAAGKLLQAKAEAGRKGPATESVGKGTYTVSRAVTTQHLLSIISLANTLMSMTNATFIGDHMKKGPTRPPRPGTPDLSKARDSPPASSNIVQGQIKQAAAPVSARSAADHSGSASASPALRTCFLVNEGWSQLAAMHCVMLPDLLGLGKFRPPLLEMLARRWQDRCLEVREAAQALLLAELRRIEQAGRKETIDTWAPYLPQYMDHVISPGVTAEAMQTMAAAPDASGPEAKVQEEEHDLVDDDITTGCLSSVPQMKKMSTSYEERRKQATAIVLLGVIGAEFGAEIEPPKLLTRPRSSSQIPEGFGLTSGGSNYSLARHTCKALTFLLLQPPSPKLPPHSTIRRTAIDLIGRGFTVWEPYMDVSAVLMGLLELCADAEKQLANITMGLPLSPAADSARSARHALSLIATARPPAFITTIAKEVHRHTALAANTQSQQSIHTTTLARAKGEILRVIEILIEKMPTDVVDLLVEVMDIIMYCLEGSLVKKKGLQECFPAICRFYMVSYYERSHRIAVGARHGSVALYDIRTGKCQTIHGHKGPITAVSFAPDGRYLATYSNTDSHISFWQMNTSLLGSIGMLNSAPQLRCIKTYQVPPVQPASPGSHNALRLARLIWTSNRNVILMAHDGKEHRFMV
notes: Rabconnectin3β / WDR7, endogenous protein of rat brain; also called Rabcn3β; Rbcn3β/WDR7; source: endogenous, rat brain crude synaptosomal membrane fraction, solubilized in 1% Triton X-100
B1: the “stoichiometry relative to CAPS1 (bands of the immunoprecipitate)” value was 0.167 Rbcn3 subunit : CAPS1.
